Laboratory results reported in the supplement of paper PMC10065799, “High-throughput profiling of sequence recognition by tyrosine kinases and SH2 domains using bacterial peptide display” (eLife, 2023).

Tests used:
SHP2-C SH2 = experiment: SH2 binding enrichment of the phosphorylated peptide, bacterial display (enrichment ratio); higher = better substrate or ligand; peptides without Tyr show the background
Grb2 SH2 = Grb2 SH2 (UniProt P62993); experiment: as above
c-Src SH2 = experiment: as above
AncSZ = experiment: phosphorylation enrichment, bacterial display (enrichment ratio); higher = better substrate or ligand; peptides without Tyr show the background
c-Src = experiment: as above
FGFR3 = FGFR3 (UniProt P22607); experiment: as above
EPHB1 = EPHB1 (UniProt P54762); experiment: as above
EPHB2 = EPHB2 (UniProt P29323); experiment: as above
Chain of EPHB2 (P29323 whole entry, looked up): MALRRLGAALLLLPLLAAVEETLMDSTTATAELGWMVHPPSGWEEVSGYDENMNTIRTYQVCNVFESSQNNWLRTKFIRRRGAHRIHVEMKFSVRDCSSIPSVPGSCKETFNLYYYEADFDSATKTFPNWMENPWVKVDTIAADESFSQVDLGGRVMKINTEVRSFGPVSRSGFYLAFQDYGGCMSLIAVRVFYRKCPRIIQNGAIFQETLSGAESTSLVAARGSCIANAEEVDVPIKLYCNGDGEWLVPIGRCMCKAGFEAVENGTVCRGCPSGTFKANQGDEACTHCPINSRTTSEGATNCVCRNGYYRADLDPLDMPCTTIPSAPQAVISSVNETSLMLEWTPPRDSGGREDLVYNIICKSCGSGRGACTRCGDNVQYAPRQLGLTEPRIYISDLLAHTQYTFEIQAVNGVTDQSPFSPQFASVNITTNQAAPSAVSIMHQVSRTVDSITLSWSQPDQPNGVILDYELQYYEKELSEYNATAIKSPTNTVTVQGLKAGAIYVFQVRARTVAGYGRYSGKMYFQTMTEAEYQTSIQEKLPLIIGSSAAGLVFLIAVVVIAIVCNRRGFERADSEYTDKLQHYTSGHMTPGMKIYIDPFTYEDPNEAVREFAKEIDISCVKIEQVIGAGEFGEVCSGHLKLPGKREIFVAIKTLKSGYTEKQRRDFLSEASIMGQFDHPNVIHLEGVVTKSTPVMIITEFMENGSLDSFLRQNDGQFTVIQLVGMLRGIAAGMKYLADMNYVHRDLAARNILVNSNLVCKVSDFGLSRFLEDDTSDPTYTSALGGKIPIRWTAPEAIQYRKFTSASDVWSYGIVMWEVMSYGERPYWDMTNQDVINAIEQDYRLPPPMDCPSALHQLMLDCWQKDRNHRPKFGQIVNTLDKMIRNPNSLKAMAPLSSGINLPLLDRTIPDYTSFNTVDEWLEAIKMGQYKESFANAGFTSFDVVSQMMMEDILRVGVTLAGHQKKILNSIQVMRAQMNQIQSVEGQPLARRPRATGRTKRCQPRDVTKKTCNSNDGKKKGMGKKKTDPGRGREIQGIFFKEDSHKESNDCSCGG

Hck = Hck (UniProt P08631); experiment: as above
Chain of Hck (P08631 whole entry, looked up): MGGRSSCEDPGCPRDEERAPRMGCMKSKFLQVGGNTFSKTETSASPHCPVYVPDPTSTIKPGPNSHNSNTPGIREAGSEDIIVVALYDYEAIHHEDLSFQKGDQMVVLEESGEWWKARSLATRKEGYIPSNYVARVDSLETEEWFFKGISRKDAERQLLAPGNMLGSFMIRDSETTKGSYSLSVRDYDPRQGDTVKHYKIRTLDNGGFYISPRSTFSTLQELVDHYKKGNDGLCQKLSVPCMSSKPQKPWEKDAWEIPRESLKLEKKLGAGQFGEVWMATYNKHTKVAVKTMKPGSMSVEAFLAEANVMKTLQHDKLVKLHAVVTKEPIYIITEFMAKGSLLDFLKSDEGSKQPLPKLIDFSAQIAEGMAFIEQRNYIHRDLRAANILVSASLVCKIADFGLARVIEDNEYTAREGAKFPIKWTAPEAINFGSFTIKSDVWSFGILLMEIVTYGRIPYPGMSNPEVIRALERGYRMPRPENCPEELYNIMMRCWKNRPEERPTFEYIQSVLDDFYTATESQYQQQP

MERTK = MERTK (UniProt Q12866); experiment: as above
Chain of MERTK (Q12866 whole entry, looked up): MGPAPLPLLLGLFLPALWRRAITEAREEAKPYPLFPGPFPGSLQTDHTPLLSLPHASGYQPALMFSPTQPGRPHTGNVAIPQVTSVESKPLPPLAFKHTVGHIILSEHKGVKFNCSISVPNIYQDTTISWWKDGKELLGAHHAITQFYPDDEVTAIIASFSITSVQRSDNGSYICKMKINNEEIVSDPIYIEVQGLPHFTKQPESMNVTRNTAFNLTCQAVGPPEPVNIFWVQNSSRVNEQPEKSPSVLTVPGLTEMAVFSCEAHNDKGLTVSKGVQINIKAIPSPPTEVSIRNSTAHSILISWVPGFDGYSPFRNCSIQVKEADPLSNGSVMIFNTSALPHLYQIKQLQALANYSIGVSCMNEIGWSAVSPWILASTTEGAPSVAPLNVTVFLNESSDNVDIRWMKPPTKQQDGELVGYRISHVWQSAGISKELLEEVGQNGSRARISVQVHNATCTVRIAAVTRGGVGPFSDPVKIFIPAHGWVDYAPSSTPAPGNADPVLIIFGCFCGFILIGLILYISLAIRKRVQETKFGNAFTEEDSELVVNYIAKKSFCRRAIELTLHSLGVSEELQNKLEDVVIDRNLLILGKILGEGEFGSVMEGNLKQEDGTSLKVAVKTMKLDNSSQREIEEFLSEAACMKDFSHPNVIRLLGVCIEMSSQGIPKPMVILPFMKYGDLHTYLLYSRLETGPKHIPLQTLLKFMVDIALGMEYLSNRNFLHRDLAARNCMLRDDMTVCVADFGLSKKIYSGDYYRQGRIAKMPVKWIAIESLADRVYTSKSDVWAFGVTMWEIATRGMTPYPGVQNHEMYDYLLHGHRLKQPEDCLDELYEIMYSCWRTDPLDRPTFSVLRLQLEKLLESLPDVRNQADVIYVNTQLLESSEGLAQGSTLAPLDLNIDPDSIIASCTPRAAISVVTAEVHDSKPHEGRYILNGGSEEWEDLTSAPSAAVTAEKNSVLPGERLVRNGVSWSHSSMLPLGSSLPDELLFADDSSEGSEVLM

Fyn = Fyn (UniProt P06241); experiment: as above
Chain of Fyn (P06241 whole entry, looked up): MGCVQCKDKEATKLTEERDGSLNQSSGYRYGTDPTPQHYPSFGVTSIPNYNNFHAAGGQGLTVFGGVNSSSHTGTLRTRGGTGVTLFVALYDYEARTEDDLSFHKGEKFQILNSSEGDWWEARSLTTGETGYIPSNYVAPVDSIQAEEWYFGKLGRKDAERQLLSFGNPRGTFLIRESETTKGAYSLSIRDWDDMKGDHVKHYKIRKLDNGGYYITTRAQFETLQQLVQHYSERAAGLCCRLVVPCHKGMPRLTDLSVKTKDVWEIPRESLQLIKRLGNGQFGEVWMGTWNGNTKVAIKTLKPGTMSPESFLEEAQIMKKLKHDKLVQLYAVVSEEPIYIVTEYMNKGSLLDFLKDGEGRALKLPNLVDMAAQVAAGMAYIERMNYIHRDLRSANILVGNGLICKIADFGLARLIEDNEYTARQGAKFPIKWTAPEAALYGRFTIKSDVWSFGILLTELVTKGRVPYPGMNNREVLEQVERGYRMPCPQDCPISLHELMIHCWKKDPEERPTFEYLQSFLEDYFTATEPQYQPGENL

Jak2 = Jak2 (UniProt O60674); experiment: as above
Fes = Fes (UniProt P07332); experiment: as above
Chain of Fes (P07332 whole entry, looked up): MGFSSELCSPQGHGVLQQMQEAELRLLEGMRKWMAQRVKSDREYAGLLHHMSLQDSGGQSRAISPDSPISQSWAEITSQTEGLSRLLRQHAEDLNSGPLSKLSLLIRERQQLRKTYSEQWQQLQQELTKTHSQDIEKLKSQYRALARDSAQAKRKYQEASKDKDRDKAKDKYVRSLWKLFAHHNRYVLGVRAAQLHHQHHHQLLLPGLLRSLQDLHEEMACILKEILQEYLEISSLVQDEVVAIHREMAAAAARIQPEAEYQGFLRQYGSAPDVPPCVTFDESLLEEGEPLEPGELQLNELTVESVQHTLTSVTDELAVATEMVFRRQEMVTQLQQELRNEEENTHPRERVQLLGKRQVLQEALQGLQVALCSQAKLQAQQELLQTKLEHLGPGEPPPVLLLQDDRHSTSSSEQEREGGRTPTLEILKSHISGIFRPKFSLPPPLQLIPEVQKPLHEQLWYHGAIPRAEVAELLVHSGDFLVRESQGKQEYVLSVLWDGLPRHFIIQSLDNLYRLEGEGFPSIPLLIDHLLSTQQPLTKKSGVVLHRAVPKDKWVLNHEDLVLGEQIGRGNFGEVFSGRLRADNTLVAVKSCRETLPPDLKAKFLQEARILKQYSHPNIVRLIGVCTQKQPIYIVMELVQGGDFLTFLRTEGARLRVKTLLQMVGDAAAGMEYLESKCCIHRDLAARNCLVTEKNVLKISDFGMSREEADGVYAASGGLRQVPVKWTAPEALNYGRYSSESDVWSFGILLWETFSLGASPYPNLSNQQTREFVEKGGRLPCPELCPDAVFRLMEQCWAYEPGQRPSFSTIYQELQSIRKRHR

FGFR1 = FGFR1 (UniProt P11362); experiment: as above
Chain of FGFR1 (P11362 whole entry, looked up): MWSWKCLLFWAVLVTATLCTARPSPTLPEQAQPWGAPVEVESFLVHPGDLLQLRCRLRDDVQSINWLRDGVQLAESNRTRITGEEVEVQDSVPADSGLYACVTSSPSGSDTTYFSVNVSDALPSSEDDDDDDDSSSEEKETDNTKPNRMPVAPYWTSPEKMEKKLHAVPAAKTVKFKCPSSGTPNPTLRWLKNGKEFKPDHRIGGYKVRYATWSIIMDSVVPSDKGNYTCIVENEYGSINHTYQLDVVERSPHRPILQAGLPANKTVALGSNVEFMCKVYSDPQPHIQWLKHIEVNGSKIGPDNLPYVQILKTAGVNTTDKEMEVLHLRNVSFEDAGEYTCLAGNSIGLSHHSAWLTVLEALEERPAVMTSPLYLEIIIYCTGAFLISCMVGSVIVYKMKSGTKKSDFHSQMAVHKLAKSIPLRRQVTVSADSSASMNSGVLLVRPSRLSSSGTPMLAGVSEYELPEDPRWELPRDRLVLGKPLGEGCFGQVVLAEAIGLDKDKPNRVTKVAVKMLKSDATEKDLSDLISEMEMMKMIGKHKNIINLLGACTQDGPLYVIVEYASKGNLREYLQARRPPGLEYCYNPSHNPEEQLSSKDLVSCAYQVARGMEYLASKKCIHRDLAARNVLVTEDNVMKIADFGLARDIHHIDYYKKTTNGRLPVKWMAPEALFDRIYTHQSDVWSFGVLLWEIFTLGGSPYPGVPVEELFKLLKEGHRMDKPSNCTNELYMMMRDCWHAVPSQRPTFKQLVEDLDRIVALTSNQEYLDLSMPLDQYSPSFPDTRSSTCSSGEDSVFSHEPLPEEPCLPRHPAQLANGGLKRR

Fer (mouse) = experiment: as above
c-Abl (mouse) = experiment: as above
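For SH2 binding enrichment of the phosphorylated peptide, bacterial display in this document: peptide library displayed on the E. coli surface as eCPX fusions, selected cells deep-sequenced, score is each peptide's frequency after selection divided by its frequency in the input.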
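For phosphorylation enrichment, bacterial display in this document: 11-residue human phosphosite peptides and single-mutation variants displayed on the E. coli surface, counted by deep sequencing, each peptide's frequency after selection divided by its frequency in the unselected input library; frequency after pTyr selection over input frequency; kinase dosed for 20-30% of maximal phosphorylation in three min.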

Row | Sequence | SH2 binding enrichment (SHP2-C SH2) | SH2 binding enrichment (Grb2 SH2) | SH2 binding enrichment (c-Src SH2) | phosphorylation enrichment (AncSZ) | phosphorylation enrichment (c-Src) | phosphorylation enrichment (FGFR3) | phosphorylation enrichment (EPHB1) | phosphorylation enrichment (EPHB2) | phosphorylation enrichment (Hck) | phosphorylation enrichment (MERTK) | phosphorylation enrichment (Fyn) | phosphorylation enrichment (Jak2) | phosphorylation enrichment (Fes) | phosphorylation enrichment (FGFR1) | phosphorylation enrichment (Fer (mouse)) | phosphorylation enrichment (c-Abl (mouse))
1 | FSTDCYRVGGH [NTRK2_Y707_Y706C_YF] | 0.745 | 0.827 | 0.636 | 1.08 | 0.608 | 0.638 | 0.592 | 0.576 | 0.646 | 0.652 | 0.545 | 1.05 | 1.12 | 0.599 | 0.452 | 0.934
2 | FTDGQYWIRGR [ACSF3_Y466_K462T] | 0.489 | 0.648 | 0.358 | 1.02 | 0.588 | 0.555 | 0.509 | 0.463 | 1.03 | 0.521 | 0.422 | 0.818 | 0.992 | 0.425 | 0.408 | 0.611
3 | FTDPFYDFEIE [ZC3H18_Y372_A368T_YF] | 0.657 | 0.995 | 0.441 | 1.37 | 4.96 | 0.783 | 1.54 | 0.867 | 0.823 | 0.777 | 4.1 | 1.66 | 1.54 | 0.665 | 1.03 | 1.05
4 | FTFNSYFMHWV [IGHV1-46_Y51_T49N_YF] | 1.07 | 1.12 | 0.795 | 1.55 | 0.555 | 1.37 | 0.726 | 0.761 | 0.693 | 1.04 | 0.608 | 6.35 | 1.59 | 1.51 | 1.62 | 0.962
5 | FTHSDYQFSQR [PKP2_Y166_YF] | 0.723 | 1 | 0.62 | 0.828 | 0.455 | 0.646 | 0.435 | 0.538 | 0.508 | 0.383 | 0.63 | 0.589 | 0.764 | 0.458 | 0.594 | 0.619
6 | FTNRNYDLDYD [MYC_Y12] | 0.517 | 0.799 | 3.05 | 1.13 | 0.586 | 0.591 | 0.666 | 0.637 | 0.594 | 0.58 | 0.607 | 1.3 | 1.12 | 0.69 | 0.58 | 0.713
7 | FTRNYYVRAVL [CYBA_Y88] | 0.78 | 0.885 | 0.53 | 1.19 | 0.468 | 0.685 | 0.622 | 0.609 | 0.566 | 0.506 | 0.511 | 1.06 | 1.11 | 0.629 | 0.526 | 0.976
8 | FVPSFYHAFSG [ACTN4_Y265_S262P_YF] | 1.2 | 0.993 | 0.921 | 0.711 | 1.88 | 0.824 | 1.23 | 0.756 | 1.48 | 7.34 | 1.48 | 0.823 | 0.83 | 0.796 | 0.444 | 0.835
9 | FVSIVCNDSGE [TSC2_Y1650_Y1650C] | 0.66 | 0.583 | 0.57 | 1.12 | 0.478 | 0.921 | 0.644 | 0.646 | 0.537 | 0.464 | 0.476 | 1.18 | 1.21 | 0.534 | 0.613 | 0.767
10 | FYNSEYGELSE [FLT4_Y1337] | 0.805 | 0.886 | 0.748 | 1.47 | 1.69 | 0.932 | 0.729 | 0.956 | 0.997 | 0.589 | 1.59 | 1.58 | 1.36 | 0.628 | 0.684 | 0.986
11 | GEFFRYLAEVA [YWHAG_Y133_D129E_YF] | 0.673 | 0.924 | 0.454 | 0.873 | 0.442 | 0.767 | 0.46 | 0.501 | 0.431 | 0.438 | 0.575 | 1.02 | 1.17 | 0.498 | 0.51 | 0.747
12 | GFILMYDITNK [RAB3C_Y110_E115K] | 0.727 | 0.944 | 0.5 | 1.59 | 0.575 | 1.17 | 1.15 | 1.14 | 0.591 | 0.835 | 0.529 | 1.83 | 2.04 | 0.617 | 0.724 | 1.21
13 | GFSDPYVKAFL [SYT3_Y470_S474F] | 0.686 | 0.897 | 0.51 | 0.693 | 0.497 | 0.729 | 0.595 | 0.577 | 0.466 | 0.472 | 0.481 | 0.898 | 1 | 0.535 | 0.565 | 0.772
14 | GGDVIYKGFED [NFU1_Y194] | 0.625 | 0.822 | 0.427 | 0.871 | 2.75 | 0.629 | 0.425 | 0.491 | 0.951 | 0.466 | 3.25 | 0.924 | 0.887 | 0.499 | 0.395 | 0.663
15 | GGFTWYCDGKK [PROS1_Y266_C265W_YF] | 0.511 | 0.761 | 0.37 | 1.08 | 0.299 | 0.833 | 0.651 | 0.605 | 0.389 | 0.29 | 0.328 | 1.2 | 1.23 | 0.432 | 0.438 | 0.928
16 | GHLYAYDWISI [BEST1_Y227] | 1.31 | 1.56 | 1.76 | 1.98 | 2.38 | 6.48 | 6.51 | 5.04 | 2.99 | 9.38 | 2.24 | 0.923 | 3.56 | 8.88 | 15 | 0.848
17 | GITVTYTIPKK [UBA5_Y372_A371T] | 3.64 | 0.862 | 1.26 | 0.933 | 0.4 | 0.563 | 0.537 | 0.557 | 0.54 | 1.49 | 0.413 | 0.994 | 0.96 | 0.522 | 0.497 | 2.12
18 | GKGGSYSQAAS [HLA-B_Y344_C349S] | 0.785 | 0.609 | 0.434 | 0.548 | 0.529 | 0.52 | 0.47 | 0.41 | 0.462 | 0.493 | 0.362 | 0.651 | 0.819 | 0.515 | 0.441 | 0.622
19 | GKPENYRRLDI [VHL_Y175_V170G] | 0.754 | 0.755 | 0.508 | 0.452 | 0.353 | 0.376 | 0.317 | 0.285 | 0.327 | 0.337 | 0.295 | 0.539 | 0.598 | 0.335 | 0.301 | 0.457
20 | GLDGSYLPRDS [SH2D1A_Y29_L31P] | 0.483 | 0.879 | 0.557 | 0.663 | 0.418 | 0.446 | 0.44 | 0.4 | 0.55 | 0.416 | 0.356 | 0.534 | 0.624 | 0.418 | 0.419 | 0.513
21 | GLQDEYDFKCK [STAT1_Y170_D165G] | 0.74 | 0.709 | 0.559 | 1.09 | 0.543 | 0.555 | 0.509 | 0.63 | 0.597 | 0.453 | 0.453 | 1.18 | 1.12 | 0.626 | 0.467 | 0.831
22 | GLRSYYETSKM [MAGED2_Y449] | 0.638 | 0.839 | 0.842 | 0.592 | 0.591 | 1.13 | 0.475 | 0.584 | 0.656 | 0.546 | 0.417 | 0.784 | 0.762 | 1.44 | 0.465 | 0.534

Second part, led by results:

Row | SH2 binding enrichment (SHP2-C SH2) | SH2 binding enrichment (Grb2 SH2) | SH2 binding enrichment (c-Src SH2) | Sequence | phosphorylation enrichment (AncSZ) | phosphorylation enrichment (c-Src) | phosphorylation enrichment (FGFR3) | phosphorylation enrichment (EPHB1) | phosphorylation enrichment (EPHB2) | phosphorylation enrichment (Hck) | phosphorylation enrichment (MERTK) | phosphorylation enrichment (Fyn) | phosphorylation enrichment (Jak2) | phosphorylation enrichment (Fes) | phosphorylation enrichment (FGFR1) | phosphorylation enrichment (Fer (mouse)) | phosphorylation enrichment (c-Abl (mouse))
23 | 0.973 | 0.928 | 1.85 | FSNPAYFVLEG [INPPL1_Y986_N982S_YF] | 1.01 | 0.809 | 4.24 | 0.642 | 0.548 | 0.451 | 3.43 | 0.416 | 3.86 | 0.895 | 6.43 | 0.564 | 0.865
24 | 0.778 | 0.876 | 0.606 | FSPPYYHRNCM [HGD_Y334_R330S] | 0.807 | 0.482 | 0.609 | 0.558 | 0.664 | 0.515 | 0.451 | 0.505 | 0.817 | 0.957 | 0.66 | 0.482 | 0.749
25 | 0.659 | 0.828 | 3.48 | FTNRNYDLDFD [MYC_Y12_YF] | 1.36 | 0.633 | 0.696 | 0.751 | 0.587 | 0.634 | 0.494 | 0.5 | 1.22 | 1.42 | 0.561 | 0.543 | 1.01
26 | 0.785 | 0.942 | 0.509 | FVKEPYIQSRF [HIPK4_Y175_YF] | 0.569 | 0.418 | 0.479 | 0.402 | 0.452 | 0.402 | 0.39 | 0.374 | 0.607 | 0.702 | 0.375 | 0.43 | 0.447
27 | 0.85 | 0.683 | 5.63 | GESQGYDIMEP [MSH2_Y863] | 1.14 | 0.419 | 0.642 | 0.541 | 0.555 | 0.487 | 0.472 | 0.454 | 0.827 | 0.94 | 0.424 | 0.441 | 0.605
28 | 0.564 | 0.708 | 1.44 | GFSRHYEDGFP [CTNND1_Y217_YF] | 0.619 | 0.335 | 0.563 | 0.432 | 0.451 | 0.435 | 0.442 | 0.428 | 0.608 | 0.739 | 0.352 | 0.574 | 0.405
29 | 0.881 | 0.972 | 0.753 | GGFTRYCDGKK [PROS1_Y266_C265R_YF] | 0.771 | 0.423 | 0.449 | 0.393 | 0.315 | 0.403 | 0.403 | 0.368 | 0.653 | 0.722 | 0.369 | 0.436 | 0.601
30 | 0.571 | 1.22 | 0.934 | GGYNNYGYGND [HNRNPH3_Y159] | 0.802 | 0.456 | 0.688 | 1.92 | 3.79 | 0.556 | 0.565 | 0.805 | 0.808 | 0.849 | 0.66 | 0.672 | 1.24
31 | 0.651 | 0.79 | 0.395 | GHNDVYISKHV [GRIN2A_Y1423_E1426K] | 0.373 | 0.352 | 0.364 | 0.254 | 0.333 | 0.412 | 0.347 | 0.423 | 0.391 | 0.536 | 0.323 | 0.313 | 0.376
32 | 0.529 | 0.694 | 0.488 | GKTQQYECKWF [BCR_Y751_D752E_YF] | 0.818 | 0.472 | 0.627 | 0.509 | 0.603 | 0.569 | 0.467 | 0.509 | 0.793 | 1.06 | 0.545 | 0.572 | 0.614
33 | 0.709 | 0.705 | 0.385 | GLGGVYGGASG [KRT8_Y54_G53V] | 0.514 | 0.702 | 0.52 | 0.445 | 0.355 | 0.669 | 0.445 | 0.566 | 0.587 | 0.661 | 0.448 | 0.418 | 0.577
